Assay [1] addresses PD-L1-6His-tag (Programmed cell Death Ligand 1) of the Cisbio Human PD1/PD-L1 biochemical binding assay (human) (UniProt Q9NZQ7). The assay can be described thus: AlphaScreen or HTRF.
For assay [2], the target named is human PD-L1 expressed on CHO-K1 cells (CHO-K1 hPD-L1) (human) (UniProt Q9NZQ7). Nature of the assay: radioligand binding.
Chain of human PD-L1 expressed on CHO-K1 cells (CHO-K1 hPD-L1) (human) (Q9NZQ7 19-290): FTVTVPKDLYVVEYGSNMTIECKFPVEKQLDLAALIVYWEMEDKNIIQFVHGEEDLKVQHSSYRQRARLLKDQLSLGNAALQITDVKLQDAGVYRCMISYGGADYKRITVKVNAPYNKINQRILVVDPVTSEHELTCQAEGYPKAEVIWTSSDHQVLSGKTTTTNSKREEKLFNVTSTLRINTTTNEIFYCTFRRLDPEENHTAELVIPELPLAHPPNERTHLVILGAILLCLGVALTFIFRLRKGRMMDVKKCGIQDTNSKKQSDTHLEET

Chain of PD-L1-6His-tag (Programmed cell Death Ligand 1) of the Cisbio Human PD1/PD-L1 biochemical binding assay (human) (Q9NZQ7 19-238): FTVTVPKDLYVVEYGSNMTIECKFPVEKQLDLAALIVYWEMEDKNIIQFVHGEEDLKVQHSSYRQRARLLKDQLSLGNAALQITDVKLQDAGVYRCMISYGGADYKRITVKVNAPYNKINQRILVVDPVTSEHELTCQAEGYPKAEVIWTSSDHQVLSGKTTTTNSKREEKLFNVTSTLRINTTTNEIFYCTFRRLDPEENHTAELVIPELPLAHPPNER

BMS78, 14-mer macrocyclic peptide displayed an IC50 in assay [1] of 133 nM. Still for that read-out and setting: the same measure for “NJMP1 (BMS78 C-terminally conjugated to Lys(DOTA)NH2) (peptide)”: 242 nM. With [68Ga]Ga-NJMP1 (peptide), in assay [2], the cell internalization %AD/10^6 cells (90 min) (%AD/10^6 cells) amounted to 1.68 and the membrane bound %AD/10^6 cells (90 min) (%AD/10^6 cells) is 0.36. In the same order, the values of “[68Ga]Ga-WL12 (WL12 with DOTAGA on Orn13, loaded with 68Ga) (peptide)” are 19.2 and 18.2. In turn, natGa-NJMP1 (peptide) registered an IC50 in assay [1] of 25900 nM. The substance “natGa-WL12 (WL12 with DOTAGA on Orn13, loaded with natGa) (peptide)” came in with a half-inhibitory concentration (IC50) in assay [1] of 12.4 nM.

Values taken from PMC9320808.
